Experimental data taken from patent US20200040103A1 (Genentech, published 2020).

Legend:
human KLK1 = human KLK1 (human, UniProt P06870 25-262, limits assumed); assay: column 7: KLK1 activity assay, 3 nM KLK1
[1] = target: T1, trypsin isolated from bovine pancreas (bovine, UniProt P00760 24-246); assay: column 9: trypsin activity assay, 0.25 nM trypsin
T1 construct: also called bovine trypsin
Protocol: 0.25 nM trypsin isolated from bovine pancreas and 0.19-100 nM anti-KLK5 inhibitors were pre-incubated for 30 minutes prior to addition of 50 μM Boc-VPR-AMC. […] The results for the KLK5 inhibitors are depicted as follows: FIG. 9A: Spink9.SRE.Fc, FIG. 9B: mAb1108, FIG. 9C: 3-3F5, FIG. 9D: 10C8, FIG. 9E: 9B6, FIG. 9F: 9F2, FIG. 9G: 9H3, FIG. 9H: 9H5, FIG. 9I: 8B7, FIG. 9J: 2B11, FIG. 9K: 8F5, FIG. 9L: 10C5, FIG. 9M: 10H3 and FIG. 9N: 2-3F4.
(§1) Trypsin selectivity assay was performed at room temperature in a 384-well plate (black, low-volume round bottom, Corning #4514) with a final reaction volume of 15 μL. Inhibitor samples were diluted to 3× final concentration in assay buffer (75 mM Tris, pH 8.0, 150 mM NaCl, 0.01% TWEEN® 20). Reactions lacking inhibitor and reactions lacking enzyme were used as 100% and 0% activity controls, respectively. Inhibitor or control samples (5 μL) were added to the plate followed by 5 μL trypsin (Sigma Aldrich T8003, Lot SLBM2321V, 42.0 μM stock solution in 1 mM HCl) in assay buffer at a final concentration of 0.25 nM. After 30 minutes, 5 μL of Boc-Val-Pro-Arg-AMC (Bachem I-1120, 31.3 mM stock solution in water) in assay buffer was added at a final concentration of 50 μM. […] Reaction rates (expressed as RFU/s) were calculated by linear regression in the range 204-3570 seconds. Reaction rates were normalized to the values of the 0% and 100% activity controls and fit with a 4-parameter equation to calculate IC₅₀ values. In the case of bivalent inhibitors, the raw IC₅₀ value was multiplied by two.

human KLK7 = human KLK7 (human, UniProt P49862 30-253, limits assumed); assay: column 6: KLK7 activity assay, 5 nM KLK7
Protocol: KLK7 selectivity assay was performed at room temperature in a 384-well plate (black, low-volume round bottom, Corning #4514) with a final reaction volume of 15 μL. Inhibitor samples were diluted to 3× final concentration in assay buffer (75 mM Tris, pH 8.0, 150 mM NaCl, 0.01% TWEEN® 20). Reactions lacking inhibitor and reactions lacking enzyme were used as 100% and 0% activity controls, respectively. Inhibitor or control samples (5 μL) were added to the plate followed by 5 μL KLK7 (Genentech) in assay buffer at a final concentration of 5 nM. After 30 min, 5 μL of Suc-Leu-Leu-Val-Tyr-AMC (Bachem I-1395, 25 mM stock solution in water) in assay buffer was added at a final concentration of 100 μM. […] Reaction rates (expressed as RFU/s) were calculated by linear regression in the range 2040-4488 seconds. Reaction rates were normalized to the values of the 0% and 100% activity controls and fit with a 4-parameter equation to calculate IC₅₀ values. […]

human KLK4 = human KLK4 (human, UniProt Q9Y5K2 31-254, limits assumed); assay: column 8: KLK4 activity assay, 2 nM KLK4
Protocol: as §1, with “KLK4” for “Trypsin”, “KLK4 (R&D Systems, 1719-SE,” for “trypsin (Sigma Aldrich T8003,”, “MSY0116011, activated according to R&D systems protocol)” for “SLBM2321V, 42.0 μM stock solution in 1 mM HCl)”, “2” for “0.25”, “510-3570” for “204-3570”
In FIG. 8, the ability of Spink9.SRE.Fc, mAb1108 or 12 selected anti-KLK5 antibodies to inhibit the proteolysis of the substrate, Boc-VPR-AMC, by human KLK4 was assessed using an enzymatic assay. […] The results were expressed as a percentage of maximum KLK4 activity (% control).

Chain of human KLK1 (P06870 25-262 limits assumed): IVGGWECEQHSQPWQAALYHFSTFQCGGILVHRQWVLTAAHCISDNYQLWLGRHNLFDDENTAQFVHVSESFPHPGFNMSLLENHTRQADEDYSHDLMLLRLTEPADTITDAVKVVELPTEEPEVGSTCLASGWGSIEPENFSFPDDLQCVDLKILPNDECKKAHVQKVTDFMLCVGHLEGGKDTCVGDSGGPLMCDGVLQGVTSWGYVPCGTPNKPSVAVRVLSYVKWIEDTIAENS
Chain of human KLK4 (Q9Y5K2 31-254 limits assumed): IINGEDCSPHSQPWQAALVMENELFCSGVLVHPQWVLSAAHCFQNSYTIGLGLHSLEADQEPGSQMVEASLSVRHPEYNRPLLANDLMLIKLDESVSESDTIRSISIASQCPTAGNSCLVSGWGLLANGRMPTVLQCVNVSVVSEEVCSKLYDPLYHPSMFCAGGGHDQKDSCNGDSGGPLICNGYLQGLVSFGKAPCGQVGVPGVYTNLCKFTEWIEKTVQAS
Chain of human KLK7 (P49862 30-253 limits assumed): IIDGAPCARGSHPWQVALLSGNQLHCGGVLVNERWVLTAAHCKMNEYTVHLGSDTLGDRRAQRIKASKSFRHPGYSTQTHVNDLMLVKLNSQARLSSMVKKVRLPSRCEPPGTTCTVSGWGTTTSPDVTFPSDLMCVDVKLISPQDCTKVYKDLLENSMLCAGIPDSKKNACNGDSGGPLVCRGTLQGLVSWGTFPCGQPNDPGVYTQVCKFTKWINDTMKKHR
T1 sequence (P00760 24-246): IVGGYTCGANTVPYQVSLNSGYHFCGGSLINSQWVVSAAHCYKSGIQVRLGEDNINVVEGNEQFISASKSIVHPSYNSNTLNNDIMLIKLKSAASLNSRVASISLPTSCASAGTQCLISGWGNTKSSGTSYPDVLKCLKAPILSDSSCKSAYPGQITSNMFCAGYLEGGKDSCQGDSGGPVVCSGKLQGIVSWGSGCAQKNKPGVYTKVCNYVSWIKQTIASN

IC50 (human KLK1)	IC50 [1]	IC50 (human KLK7)	IC50 (human KLK4)	Binder
> 100 nM	> 100 nM	> 100 nM	> 100 nM	9B6 (antibody, V domains shown) VH: QSVKESEGGLFKPTDNLTLTCTVSGFSLSNYGVTWVRQAPGNGLEYIGFIGSGGSAYYASWAKSRSTITRNTNLNTVTLKMTSLTAADTATYFCARDDVGGGKSLDIWGPGTLVTVSS VL: NIVMTQTPASVEVAVGGTVVIKCQASQNIGDYLSWYQQKPGQRPKLLIYSASTLASGVPSRFKGSGSGTQFTLTISDLECADAATYYCHQDYTSNDVENTFGGGTEVVVK
> 100 nM	> 100 nM	> 100 nM	> 100 nM	9H3 (antibody, V domains shown) VH: QSVKESEGGLFKPTDTLTLTCTVSGFSLSGYGVSWVRQAPGKGLEYIGFIGSGGSAYYASWAKSRSTITRNTNLNTVTLKMTRLTAADTATYFCARDNVGGDMSLDIWGPGTLVTVSS VL: DIVMTQTPASVSEPVGGTVTIKCQASQNINNYLSWYQQKPGQPPKQLIYAASTLASGVPSRFKGSGSGTQFTLTISDLECADAATYYCHQDYTSNNVDNTFGGGTEVVVK
> 100 nM	> 100 nM	> 100 nM	> 100 nM	9H5 (antibody, V domains shown, Rabbit monoclonal; also called Chimeric 9H5; KLK5.9H5 (complex sample)) VH: QSVKESEGGLFKPTDNLTLTCTVSGFSLSSYGVSWVRQAPGNGLEYIGFIGSGGFAYYASWAKSRSTITRNTNLNTVTLKMTSLTAADTATYFCARDDVGGGKSLDIWGPGTVVTVSV VL: NIVMTQTPASVEAAVGGTVTINCQASQSISSYLSWYQQKSGQRPKLLIFSASTLASGVPSRFTGSGSGTQFTLTISDLQCADAATYYCHQDYTSSNVDNTFGGGTEVVVK
> 100 nM	> 100 nM	> 100 nM	> 100 nM	10C8 (antibody, V domains shown) VH: QSVKESEGGLFKPTDNLTLTCTVSGFSLSSYGVSWVRQAPGNGLEYIGFIGSGGFAYYASWAKSRSTITRNTNLNTVTLKMTSLTAADTATYFCARDDVGGGRSLDIWGPGTVVTVSS VL: NIVMTQTPASVEVAMGGTVIIKCQASQSISTYLSWYQQKPGQPPKLLIYSASTLASGVSSRFEGSGSGTQFTLTISGVQCADAATYYCHQDYTSNNVDNTFGGGTEVVVK
> 100 nM	> 100 nM	> 100 nM	> 100 nM	9F2 (antibody, V domains shown) VH: QSVKESEGGLFKPTDNLTLTCTVSGFSLSSYGVSWVRQAPGNGLEYIGFIGSGGSPYYASWAKSRSTITRNTNLNTVTLKMTSLTAADTATYFCARDDVGGGKSLDIWGPGTLVTVSS VL: NIVMTQTPASVEVAVGGTVIIKCQASQSISNYLSWYHQKSGQRPRLLIYSASTLASGVPSRFKGSGSGTQFTLTISDLECADAATYYCHQDYTSNSVDNTFGGGTEVVVK
> 100 nM	> 100 nM	> 100 nM	> 100 nM	8B7 (antibody, V domains shown) VH: QSVKESEGGLFKPTDNLTLTCTVSGFSLSNYGVTWVRQAPGNGLEYIGFIGSSGSAYYASWAKSRSTITRNTNLNTVTLKMTSLTAADTATYFCARDDVGGGKSLDIWGPGTLVTVSS VL: NIVMTQTPASVEVAVGGTVTIKCQASQSIGSYLSWYQQKPGQPPKLLIYDASNLASGVPSRFKGSGSGTQFTLSISDLECADAATYYCHQDYTSNNVDNTFGGGTEVVIK
> 100 nM	> 100 nM	> 100 nM	> 100 nM	10H3 (antibody, V domains shown, also called KLK5.10H3 (complex sample)) VH: QSVKESEGGLIKPTDTLTLTCTVSGFSLSTFAINWVRQAPGNGLEWIGAIGRGGSAYYASWAKSRSTITKNTNLNTVTLKMTRPTAADTATYFCARENAGSGWGELDIWGPGTLVTVSS VL: AYEMTQTPASVEVAVGGTVTINCQASESISSDLAWYQQKPGQRPKLLIYAASTLASGVPSRFKGSGSGTEFTLSISGVQCADAATYYCQQGYTWNNVDNVFGGGTEVVVK
> 100 nM	> 100 nM	> 100 nM	> 100 nM	2B11 (antibody, V domains shown) VH: QSVKESEGGLFKPTDTLTLTCTVSGFSLINYGVSWVRQAPGKGLEWIGYIGSAGSTYYATWAKSRATITRNTNLNTVTLKMTSLTAADTATYFCARAAYSAGSADAEDIWGPGTLVTVSS VL: AYYMTQTPASVEAAVGGTVTIKCQASQSISNYVAWYQQKPGQPPKLLIYRASTLASGVSSRFSGSGSGTEFTLTISDLECADAATYYCHQGYSSSNVDNIFGGGTEVVVK
> 100 nM	> 100 nM	> 100 nM	> 100 nM	3-3F5 (antibody, V domains shown, Rabbit monoclonal; also called Chimeric 3-3F5) VH: QSVKESEGGLFKPTDTLTLTCTVSGFSLNDYGVSWVRQAPGNGLEWIGAIGSSGVAWYANWAKGRSTITRNTNLNTVTLKMASLTAADTATYFCARDRDYGYRADDATSGMDLWGPGTLVTVSS VL: AYDMTQTPASVEAAVGGTVTIKCQASESIGNALAWYQQKPGQPPKLLIYDASDLASGVPSRFKGSGSGTQFTLTISGVECADAATYYCQQGDSHNNVDNIFGGGTEVVVK
> 100 nM	> 100 nM	> 100 nM	> 100 nM	8F5 (antibody, V domains shown) VH: QSVKESEGGLFKPTDTLTLTCTVSGFSLSSYPISWVRQAPGNGLEWIGYITSEYGVAYYATWAESRSTITRNTNLNTVTLKMTSLTAADTATYFCVRENPTYGYAYDAWGPGTLVTVSS VL: AYDLTQTPASVEAAVGGTVTINCQASESIGNELSWYQQKSGQPPKLLIYQASTLASGVPSRFKGSGSGTDFTLTISDLECADAATYYCAQGFSSSGVENVFGGGTEVVVK
> 100 nM	> 100 nM	> 100 nM	> 100 nM	10C5 (antibody, V domains shown, Rabbit monoclonal; also called Chimeric 10C5; KLK5.10C5 (complex sample)) VH: QSLEESGGGLVKPTDTLTLTCTVSGFSLSSYGVTWVRQAPGRGLEWIGYITSNYGVSYYASWAKSRSTITRNTNLNTVTLKMTSLTAADTATYFCARENPDYGYAYDAWGPGTLVTVSV VL: AYDMTQTPASLEAAVGGTVTINCQASESISNELSWYQQKPGQPPDLLIYYASTLASGVPSRFKGSGSGTEFTLTISDLECADAATYYCAQGFGSSGVENVFGGGTEVVVK
> 100 nM	> 100 nM	> 100 nM	> 100 nM	2-3F4 (antibody, V domains shown) VH: QSVEESRGGLIKPTDTLTLTCTASGFSLSNYGVSWVRQAPGNGLEYIGFIGYGGSTYYASWAKSRSTITRNTNLNTVTLQMTSLTAADTATYFCARLCGVDCADALDSWGPGTLVTVSS VL: AYYMTQTPASVEVAVGGTVTIKCQASEDIGSYCSWYQQKPGQPPKLLIYDASDLASGVPSRFKGSGSGTDFTLTISGVQCDDAATYYCQQDYTGNNVDNTFGGGSEVVVK
